Here are results for two molecules from publication PMC5829564 (Nucleic Acids Research, 2018).

One series has as its target T1, Grhl1 DBD (Homo sapiens, UniProt Q9NZI5 248-485).
T1 sequence: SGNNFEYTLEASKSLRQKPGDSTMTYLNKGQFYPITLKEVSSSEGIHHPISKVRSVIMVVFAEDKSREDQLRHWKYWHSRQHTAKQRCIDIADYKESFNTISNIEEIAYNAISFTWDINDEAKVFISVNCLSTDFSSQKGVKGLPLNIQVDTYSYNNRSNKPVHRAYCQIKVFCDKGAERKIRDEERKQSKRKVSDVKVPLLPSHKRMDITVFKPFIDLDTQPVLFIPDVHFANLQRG
The experiment in a line: ITC.

The series “SEC-RALS” deals with the molecule itself. The experiment in a line: SEC-RALS.

B1: Mut_12mer (dsDNA)
DNA 1: AAAATCGATTTT
DNA 2: AAAATCGATTTT
Consider B1, for which, in the series with Grhl1 DBD, the binding result is on record as “no binding”.

B2: ΔN_Grhl1 (N-terminal truncation construct of human Grhl1, aa 248–618; DBD plus dimerization domain) (domain or fragment, UniProt Q9NZI5 248-618, looked up)
chain: SGNNFEYTLEASKSLRQKPGDSTMTYLNKGQFYPITLKEVSSSEGIHHPISKVRSVIMVVFAEDKSREDQLRHWKYWHSRQHTAKQRCIDIADYKESFNTISNIEEIAYNAISFTWDINDEAKVFISVNCLSTDFSSQKGVKGLPLNIQVDTYSYNNRSNKPVHRAYCQIKVFCDKGAERKIRDEERKQSKRKVSDVKVPLLPSHKRMDITVFKPFIDLDTQPVLFIPDVHFANLQRGTHVLPIASEELEGEGSVLKRGPYGTEDDFAVPPSTKLARIEEPKRVLLYVRKESEEVFDALMLKTPSLKGLMEAISDKYDVPHDKIGKIFKKCKKGILVNMDDNIVKHYSNEDTFQLQIEEAGGSYKLTLTEI
For B2, the stoichiometry N (commonly a count of units in the complex or per binding partner) in the series “SEC-RALS” came to 2.
